Reference: patent US20030148956A1 (PROCTER AND GAMBLE, published 2003)
Ends that are not written are not given here.

T1: corticotropin releasing factor 2 receptor
T1 sequence (Q13324 whole entry, species assumed, looked up): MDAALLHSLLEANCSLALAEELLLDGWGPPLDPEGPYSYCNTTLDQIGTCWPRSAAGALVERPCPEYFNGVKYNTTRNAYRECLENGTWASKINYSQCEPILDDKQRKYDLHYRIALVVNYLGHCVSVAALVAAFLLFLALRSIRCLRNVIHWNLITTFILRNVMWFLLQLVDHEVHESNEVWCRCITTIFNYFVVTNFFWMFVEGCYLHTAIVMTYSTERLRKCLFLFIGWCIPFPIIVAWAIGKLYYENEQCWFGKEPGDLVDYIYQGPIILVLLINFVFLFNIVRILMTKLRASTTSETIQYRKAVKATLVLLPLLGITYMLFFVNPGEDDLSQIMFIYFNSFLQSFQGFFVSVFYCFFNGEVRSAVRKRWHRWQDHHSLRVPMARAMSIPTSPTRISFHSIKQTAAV


Legend:
[1] = target: corticotropin releasing factor 1 receptor; experiment: cell-based or functional assay
[2] = target: T1, corticotropin releasing factor 2 …; experiment: cell-based or functional assay

| Binder | CRF1R EC50 [1] [nM] | CRF1R Emax % [1] [%] | CRF2R EC50 [2] [nM] | CRF2R Emax % [2] [%] |
| --- | --- | --- | --- | --- |
| DNPSLSIDLPLLLLRTLLELEKTQSQRERAEQNAQIFAHV-NH2 [SEQ ID NO 324] | 1000 | 46.6 | 17.2 | 100 |
| DNPSLSIDLPLLLLRTLLELEKTQSQRERAEQNAHIFAHV-NH2 [SEQ ID NO 328] | 1000 | 30.7 | 11.7 | 95.7 |
| DNPSLSIDLPLFLLRTLLELARTQSQRERAEQNARIFARV-NH2 [SEQ ID NO 329] | 1000 | 98.4 | 5.15 | 98.3 |
| IVLSLDVPIGLLQILLEQEKARAAREQATTNARILARV-NH2 [SEQ ID NO 325] | 100 | 5 | 11.7 | 100 |
| IVLSLDVPIGLLQKMIEIEKQEKEKQQATTNARILARV-NH2 [SEQ ID NO 322] | 1000 | 10.7 | 23.1 | 96.5 |
| PSLSIDLPLLLLRTLLELEKTQSQRERAEQNARIFARV-NH2 [SEQ ID NO 333] | 1000 | 43.8 | 9.85 | 96.9 |
| DNPSLSIDLPLLLLRTLLELEKTQSQRERAEQNANIFANV-NH2 [SEQ ID NO 326] | 1000 | 30.1 | 33.7 | 100 |
| DNPSLSIDLPLQLLRTLLELEKTQSQRERAEQNAIIFASV-NH2 [SEQ ID NO 342] | 1000 | 19.6 | 20.2 | 92.2 |
| DNPSLSIDLPLLLLRTLLELARTQSQRERAEQNARIFARV-NH2 [SEQ ID NO 340] | 740 | 96 | 7.99 | 100 |
| DNPSLSIDLPLFLLRTLLELEKTQSQRERAEQNARIFARV-NH2 [SEQ ID NO 334] | 1000 | 82.6 | 13.2 | 93.5 |
| Ac-DNPSLSIDLPLLLLRTLLELEKTQSQRERAEQNAIIFASV-NH2 [SEQ ID NO 347] | 1000 |  | 22.4 |  |
| DNPSLSIDLPLFLLRTLLELEKTQSQRERAEQNAIIFASV-NH2 [SEQ ID NO 343] | 783 | 62.5 | 13.6 | 96.5 |
| DNPSLSIDLPLLLLRTLLELEKTQSQRERAEQNAIIFASV-NH2 [SEQ ID NO 346] | 1000 |  | 8.48 |  |
| DNPSLSIDLPLILLRTLLELEKTQSQRERAEQNARIFARV-NH2 [SEQ ID NO 335] | 1000 | 49.5 | 28.1 | 91 |
| DNPSLSIDLPLFLLRTLLELEKTQSQRERAEQNARIFDRV-NH2 [SEQ ID NO 336] | 1000 | 59.9 | 17.8 | 100 |
| PSLSIDLPLILLRTLLELEKTQSQRERAEQNARIFARV-NH2 [SEQ ID NO 332] | 1000 | 61.3 | 9.95 | 100 |
| PSLSIDLPLFLLRTLLELEKTQSQRERAEQNARIFARV-NH2 [SEQ ID NO 331] | 1000 | 78.7 | 9.85 | 100 |
| DNPSLSIDLPLLLLRTLLELEKTQSQRERAEQNAQIFAQV-NH2 [SEQ ID NO 327] | 1000 | 36.5 | 28.4 | 100 |

More lines, now with the values ahead:

| CRF1R EC50 [1] [nM] | CRF1R Emax % [1] [%] | CRF2R EC50 [2] [nM] | CRF2R Emax % [2] [%] | Binder |
| --- | --- | --- | --- | --- |
| 1000 | 36.9 | 19.6 | 100 | DNPSLSIDLPLLLLRTLLELEKTQSQRERAEQNAEIFAEV-NH2 [SEQ ID NO 323] |
| 630 |  | 5.77 |  | Ac-PSLSIDLPLLLLRTLLELEKTQSQRERAEQNAIIFASV-NH2 [SEQ ID NO 348] |
| 106 | 88.3 | 8.5 | 95 | ZGPPISIDLPFFLLRKMIEIEKQEKEKQQAANNALLLATI (C-terminal amide) [SEQ ID NO 319] |
| 1000 | 44.2 | 13.8 | 100 | ZGPPISIDLPLQLLRKVIEIEKQEKEKQQAANNALLLATI (C-terminal amide) [SEQ ID NO 349] |
| 1000 | 36.5 | 23.9 | 86.7 | DNPSLSIDLPLILLRTLLELEKTQSQRERAEQNARIFDRV-NH2 [SEQ ID NO 337] |
| 1000 | 41.1 | 19.3 | 77.5 | DNPSLSIDLPLLLLRTLLELEKTQSQRERAEQNARIFDRV-NH2 [SEQ ID NO 338] |
| 1000 | 18.8 | 39.7 | 100 | DNPSLSIDLPLILLRTLLELEKTQSQRERAEQNAIIFASV-NH2 [SEQ ID NO 345] |
| 850 | 82.3 | 8.83 | 95.5 | DNPSLSIDLPLLLLRTLLELEKTQSQRERAEQNARIFARV-NH2 [SEQ ID NO 341] |
| 718 | 68.8 | 19.1 | 100 | ZGPPISIDLPLQLLRKVIEIEKQEKEKQQATTNARILARV (C-terminal amide) [SEQ ID NO 320] |
| 1000 | 33.8 | 19.6 | 86.8 | ZGPPISIDLPFQLLRKTIEIEKQEKEKQQATTNARLLDRV (C-terminal amide) [SEQ ID NO 321] |
| 1000 | 13.2 | 100 | 47.9 | DNPSLSIDLPQYLLRTLLELARTQSQRERAEQNAIIFASV-NH2 [SEQ ID NO 339] |
| 650 |  | 4.3 |  | PSLSIDLPLLLLRTLLELEKTQSQRERAEQNAIIFASV-NH2 [SEQ ID NO 344] |
| 1000 | 86.8 | 6 | 93.7 | DNPSLSIDLPLILLRTLLELARTQSQRERAEQNARIFARV-NH2 [SEQ ID NO 330] |
